Assay results from article PMC8762078, “An ALS-associated variant of the autophagy receptor SQSTM1/p62 reprograms binding selectivity toward the autophagy-related hATG8 proteins” (The Journal of Biological Chemistry, 2021).

Target: p62 WT-AIM peptide (human)
Test: native MS; ESI-MS competition binding under nondenaturing conditions: each hATG8 titrated into an equimolar mixture of WT-AIM and L341V-AIM peptides (each 10 μM); read-out is the ratio of peak intensities of unbound WT and L341V peptides; ratios given for 20 μM hATG8; two independent experiments

GABARAPL1, sequence (Q9H0R8 whole entry): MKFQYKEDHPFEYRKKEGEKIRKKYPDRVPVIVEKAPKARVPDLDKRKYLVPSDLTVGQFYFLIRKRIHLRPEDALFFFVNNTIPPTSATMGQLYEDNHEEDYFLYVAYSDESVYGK

- ratio of unbound WT:L341V AIM peptides at 20 μM hATG8 (reference: L341V-AIM): 0.5
Substance: GABARAPL1 (from UniProt Q9H0R8 1-117) (natural protein)
